Reference: paper PMC2115152
Several values for one entry are separate records, joined by “and”; a condition that tells them apart may be missing. Equal values may be shown once. Each block holds one substance with its values, some of them ahead of it.

Assays:
Experiment in all cases: co-sedimentation
[1] = target: F-actin first mixed with high mol wt TMs (rabbit | rat) (UniProt P68135)
[2] = target: F-actin first mixed with low mol wt TMs (rabbit | rat) (UniProt P68135)
F-actin (rabbit) = F-actin (rabbit) (UniProt P68135)
[3] = target: F-actin with 83-kD protein (rabbit | rat) (UniProt P68135)

83-kD nonmuscle caldesmon, sequence (Q62736 whole entry): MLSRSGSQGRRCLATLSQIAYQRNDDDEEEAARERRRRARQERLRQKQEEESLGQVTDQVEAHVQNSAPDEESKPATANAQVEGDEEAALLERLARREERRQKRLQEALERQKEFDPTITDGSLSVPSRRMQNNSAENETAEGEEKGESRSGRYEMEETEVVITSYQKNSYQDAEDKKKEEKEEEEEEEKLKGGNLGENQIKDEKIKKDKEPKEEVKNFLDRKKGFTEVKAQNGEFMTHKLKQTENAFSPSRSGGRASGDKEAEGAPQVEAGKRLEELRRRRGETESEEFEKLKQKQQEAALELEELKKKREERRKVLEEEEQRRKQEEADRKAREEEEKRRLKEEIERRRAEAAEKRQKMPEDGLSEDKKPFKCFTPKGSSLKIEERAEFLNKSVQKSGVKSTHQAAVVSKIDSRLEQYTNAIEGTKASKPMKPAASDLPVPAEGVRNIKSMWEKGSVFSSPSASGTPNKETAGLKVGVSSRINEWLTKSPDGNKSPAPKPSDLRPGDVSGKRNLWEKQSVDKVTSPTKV

stoichiometry N (actin per 83-kD protein) [1]: 6
stoichiometry N (actin per 83-kD protein) [2]: 6
Substance: 83-kD nonmuscle caldesmon (from UniProt Q62736 1-531) (natural protein)

Ka (F-actin (rabbit)): 440000 M⁻¹
TM bound to actin (0.12 mg/ml TMs, no 83-kD protein) (F-actin (rabbit)): 0.4 µmol
molar ratio of TMs to sedimentable actin (0.06 mg/ml TMs, no 83-kD protein) (F-actin (rabbit)): 157 actin per TM
molar ratio of TMs to sedimentable actin (0.12 mg/ml TMs, no 83-kD protein) (F-actin (rabbit)): 29 actin per TM
percent of actin saturated with TMs (0.06 mg/ml TMs, no 83-kD protein) (F-actin (rabbit)): 3% and 4%
percent of actin saturated with TMs (0.12 mg/ml TMs, no 83-kD protein) (F-actin (rabbit)): 20%
percent of the TM mass bound to actin (0.06 mg/ml TMs, no 83-kD protein) (F-actin (rabbit)): 5% and 7%
stoichiometry N (F-actin (rabbit)): 6 actin per TM
Ka [3]: 1.5e+06 M⁻¹
molar ratio of TMs to sedimentable actin (0.06 mg/ml TMs, 83-kD protein added) [3]: 14 actin per TM
Substance: low mol wt TMs (a mixture of TM-4 [32,400] and TM-5 [32,000])

percent of the TM mass bound to actin (50 mM KCl, no 83-kD protein) (F-actin (rabbit)): < 10%
percent of the TMs bound to actin (50 mM KCl, no 83-kD protein) (F-actin (rabbit)): 10%
fold increase of TM binding to actin against no 83-kD protein (50 mM KCl) [3]: 10 fold
Substance: high mol wt TMs (a mixture of TM-1 [40,000] and TM-2 [36,500])
